Stoichiometry N data for four substances are collected here from PMC7385642.

“And” between values parts separate entries of the source, which are not always exact repeats. Equal entries are not always repeated.

For test [1], the target named is YSD1_16, auxiliary protein of phage YSD1 (in the virion) (phage YSD1). The test is described as follows: cryo-EM structure; single-particle icosahedral reconstruction of the head of purified YSD1 virions (assembled in infected bacteria), 3.8 Å.
Test [2] addresses YSD1_22 delta-HP (residues 45-69 removed and replaced with a glycine) with C-terminal hexa-histidine tag (phage YSD1). The test can be described thus: SEC-MALS; in-line refractive index and multi-angle laser light scattering (DAWN HELEOS-II, Optilab T-rEX), 25 mM Tris pH 8.0, 200 mM NaCl. A general note: In gel filtration, larger molecules generally elute earlier.
For test [3], the target named is YSD1_17, major capsid protein of phage YSD1 (in the virion) (phage YSD1). The test is described as follows: cryo-EM structure; single-particle icosahedral reconstruction of the head of purified YSD1 virions (assembled in infected bacteria), 3.8 Å.
Test [4] addresses YSD1_22, tail-tube protein of phage YSD1 (in the virion tail) (phage YSD1). The test is described as follows: cryo-EM structure; helical reconstruction (C6 symmetry) of the tail tube of purified YSD1 virions (assembled in infected bacteria), 3.5 Å.

For “YSD1_16, auxiliary protein of phage YSD1 (in the virion) (natural protein)”, the stoichiometry N (in general, a count of units in the complex or per binding partner) in test [1] amounted to 3.
In test [2], “YSD1_22 delta-HP (residues 45-69 removed and replaced with a glycine) with C-terminal hexa-histidine tag (natural protein)” gave a stoichiometry N of 6.
“YSD1_17, major capsid protein of phage YSD1 (in the virion) (natural protein)”: in test [3], the stoichiometry N is 5 and 6.
Take “YSD1_22, tail-tube protein of phage YSD1 (in the virion tail) (natural protein)”: in test [4], the stoichiometry N stood at 6.
